Results on 3 substances are retold here after publication PMC11109247.

Values joined by “and” are separate entries in the source; they are usually repeats but may differ in a detail not shown here. Equal values may be shown once.

Assay [1] has as its target HeV G ectodomain (Hendra virus attachment glycoprotein, residues 71-604), Strep-tagged (Hendra virus) (UniProt O89343). The experiment in a line: SDS-PAGE without reduction and boiling.
Assay [2] concerns the target NiVMY G ectodomain (Nipah virus Malaysia attachment glycoprotein, residues 71-602), Strep-tagged (Nipah virus (Malaysia strain)) (UniProt Q9IH62). The experiment in a line: SDS-PAGE without reduction and boiling.
Assay [3] addresses prefusion soluble NiV F (sF; NiVBD fusion protein residues 26-482 with GCNt motif) (Nipah virus Bangladesh (NiVBD)). Briefly: BLI.
Assay [4] has the same target. Briefly: MST.

The term stoichiometry N denotes a count of units in the complex or per binding partner. The term Kd denotes the free concentration of one partner at which half of the binding sites on the other are occupied at equilibrium, for simple one-to-one binding. High values mean a looser complex, low ones a tighter complex.

On to “HeV G ectodomain (Hendra virus attachment glycoprotein, residues 71-604), Strep-tagged (from UniProt O89343 71-604) (domain or fragment)”, for which, in assay [1], the stoichiometry N is 4 and 2. For the substance “NiVMY G ectodomain (Nipah virus Malaysia attachment glycoprotein, residues 71-602), Strep-tagged (from UniProt Q9IH62 71-602) (domain or fragment)”, in assay [2], the stoichiometry N was 4 and 2.

Take P-59 (peptide of NiVBD G, 233-247 aa): the Kd in assay [3] was 0.19 µM; in assay [4], 5 µM.
